# Non-standard residues stand in square brackets, D forms with d. No end group written: not given here. APC = 3-aminopyrrolidine-4-carboxylic acid (cyclic beta amino acid); ACPC = 2-aminocyclopentanecarboxylic acid (cyclic beta amino acid); Aib = CC(C)(N)C(=O)O
# T1: GIP receptor (UniProt P48546 22-466, limits assumed)
# T1 sequence (looked up): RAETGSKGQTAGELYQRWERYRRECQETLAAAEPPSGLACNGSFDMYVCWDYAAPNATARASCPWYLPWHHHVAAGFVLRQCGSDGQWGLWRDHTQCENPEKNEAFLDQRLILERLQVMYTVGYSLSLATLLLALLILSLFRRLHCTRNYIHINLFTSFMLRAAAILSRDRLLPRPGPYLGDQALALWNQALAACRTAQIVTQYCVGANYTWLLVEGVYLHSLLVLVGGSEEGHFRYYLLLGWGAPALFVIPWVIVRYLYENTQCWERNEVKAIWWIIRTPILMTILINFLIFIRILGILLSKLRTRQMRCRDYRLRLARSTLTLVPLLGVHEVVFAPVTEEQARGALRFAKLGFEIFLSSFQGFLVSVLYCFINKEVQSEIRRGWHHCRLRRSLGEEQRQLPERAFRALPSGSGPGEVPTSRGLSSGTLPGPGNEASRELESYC
# T2: GIP receptor (GIPR) (Homo sapiens, UniProt P48546)
# T2 sequence (P48546 22-466): T1 sequence (looked up)
# B1: 2004 (peptide)
# peptide: YXEGTFTSDYSXYLXKQAXXEXVNWXLAX
# modifications: B = alpha-aminoisobutyric acid (Aib) at positions 2 and 20; alpha-to-beta3 amino acid replacement(s) at the bold and underlined position(s) of the printed sequence, which this text does not show
# B2: 2005 (peptide)
# peptide: YXEGTFTSDYSIYXDKXAAXXFVXWLLXG
# modifications: B = alpha-aminoisobutyric acid (Aib) at positions 2 and 20; alpha-to-beta3 amino acid replacement(s) at the bold and underlined position(s) of the printed sequence, which this text does not show
# B3: 2001 (peptide)
# peptide: YXEGTFTSDYSXYLDXQAXXEFXNWXLAG
# modifications: B = alpha-aminoisobutyric acid (Aib) at positions 2 and 20; alpha-to-beta3 amino acid replacement(s) at the bold and underlined position(s) of the printed sequence, which this text does not show
# Experiments:
# GIP receptor = biological target: T1, GIP receptor; assay: cell-based or functional assay
# [1] = Stability in human liver microsomes; conditions: for % of mass remaining in solution: 0.5 mg/mL human liver microsomes, 1 μM, 1 mM NADPH, 37° C.
# Protocol: Human liver microsomes were prepared by Absorption Systems. A reaction mixture, minus NADPH, was prepared as described below. […] In parallel, a […]. The test compound was added into the reaction mixture (0.5 mg/mL human liver microsomes; 100 mM potassium phosphate; 5 mM Magnesium chloride) at a final concentration of 1 μM. An aliquot of the reaction mixture (without cofactor) was incubated in a shaking water bath at 37° C. for 3 minutes. […] The samples were then mixed and centrifuged to precipitate microsomal proteins. […] A thermo BDS Hypersil C18 column (30×2.0 mm; 3 μm) was used for chromatography at 300 μL/minute with an aqueous reservoir of 90% water and 10% buffer and an organic reservoir of 90% acetonitrile with 10% buffer (each 25 mM ammonium formate buffer at pH of 3.5). Test compound samples were analyzed by orbitrap. The peak area response ratio to internal standard (PARR) of the compounds at 10, 20, 30, and 60 minutes was compared to the PARR at time 0 to determine the percent of test compound remaining at each timepoint. After the final time point, fluorimetry is used to confirm the addition of NADPH to the reaction mixture. Half-life was normalized of control using internal acceptance criteria.
# The mass spectrometry measurements of compound were taken at 0, 10, 20, 30, and 60 minutes after incubation of the compound with human liver microsomes at […] in solution at 37° C.
# Intrinsic clearance (CLint) was calculated based upon CLint=k/P, where k is the elimination rate constant and P is the protein concentration in the incubation.
# GIP receptor (GIPR) = biological target: T2, GIP receptor (GIPR); assay: cAMP Hunter agonist assay (DiscoveRx HitHunter cAMP XS+), GIPR cells; assay type: cell-based; conditions: read-out: Max Response
# Protocol: Once it was established that the cells were healthy and growing normally, cells were passaged from flasks using cell dissociation reagent buffer and seeded into white walled clear bottom 384-well microplates for compound profiling. For profiling, cells were seeded at a density of 10,000 cells per well in a total volume of 20 μL and were allowed to adhere and recover overnight prior to compound addition. cAMP modulation was determined using the DiscoveRx HitHunter cAMP XS+ assay.
# For profiling compound in agonist mode, the cells were incubated in the presence of compound at 37° C. for 30 minutes. […] After appropriate compound incubation, assay signal was generated through incubation with DiscoverX lysis cocktail according to the manufacturers standard protocol. Dose curves were plotted using GraphPad Prism or Activity Base. Percentage activity is calculated using the following formula: % Activity=100%×(mean RLU of test sample−mean RLU of vehicle control)/(mean RLU of MAX control−mean RLU of vehicle control).
# [2] = Stability in human plasma; assay type: in vitro ADME
# Protocol: Studies of the 2010 peptide were carried out in human plasma. All plasma was obtained from Bioreclamation and collected on sodium heparin. DMSO stocks were first prepared for the test compounds. Aliquots of the DMSO solutions were dosed into 1 mL of plasma, which had been pre-warmed to 37° C., at a final test compound concentration of 1 μM. The vials were kept in a benchtop Thermomixer® for the duration of the experiment. Aliquots (100 μL) were taken at each timepoint (0, 15, 30, 60, and 120 minutes) and added to 96-well plates which had been pre-filled with 300 μL of acetonitrile. Samples were stored at 4° C. until the end of the experiment. After the final timepoint was sampled, the plate was mixed and then centrifuged at 3,000 rpm for 10 minutes. Aliquots of the supernatant were removed, diluted 1:1 into distilled water, and analyzed by LC-MS/MS.
# Below is a table of data describing the stability of compounds exposed to human plasma with aliquot of compound dissolved in DMSO solution at 37° C. The pH of the plasma solution was adjusted to 7.4 and single replicants of aliquot were taken at 0, 15, 30, 60 and 120 minutes. LC-MS/MS was used to determine the percent mass of compound remaining in solution (% remaining).
# GLP-1 receptor = GLP-1 receptor (UniProt P43220 24-463, limits assumed); assay: cell-based or functional assay
Molecule,cAMP agonist: Max Response (GIP receptor) [%],cAMP agonist: Max Response (GLP-1 receptor) [%],cAMP agonist: Curve Bottom (GIP receptor) [%],cAMP agonist: Curve Top (GIP receptor) [%],cAMP agonist: Curve Bottom (GLP-1 receptor) [%],cAMP agonist: Curve Top (GLP-1 receptor) [%],further results
wild-type GLP-1 (from UniProt P01275 92-128) (ligand),2.66,–,–,–,–,–,–
"C[C@]12CC[C@H]3[C@@H](CCC4=CC(=O)CC[C@@]43C)[C@@H]1CC[C@@H]2O [Testosterone, testosterone]",–,–,–,–,–,–,"% of mass remaining in solution ([1]; 0 mins.): 100%; % of mass remaining in solution ([1]; 60 mins.): 4.8%; remaining at 10 min, 1 μM ([1]; human, microsomes): 53%; remaining at 0.5 h, 1 μM ([1]; human, microsomes): 13%"
CC[C@H](C)[C@H](NC(=O)[C@H](Cc1ccccc1)NC(=O)[C@H](CCC(=O)O)NC(=O)[C@H](CCCCN)NC(=O)[C@H](C)NC(=O)[C@H](C)NC(=O)[C@H](CCC(N)=O)NC(=O)CNC(=O)[C@H](CCC(=O)O)NC(=O)[C@H](CC(C)C)NC(=O)[C@H](Cc1ccc(O)cc1)NC(=O)[C@H](CO)NC(=O)[C@H](CO)NC(=O)[C@@H](NC(=O)[C@H](CC(=O)O)NC(=O)[C@H](CO)NC(=O)[C@@H](NC(=O)[C@H](Cc1ccccc1)NC(=O)[C@@H](NC(=O)CNC(=O)[C@H](CCC(=O)O)NC(=O)[C@H](C)NC(=O)[C@@H](N)Cc1c[nH]cn1)[C@@H](C)O)[C@@H](C)O)C(C)C)C(=O)N[C@@H](C)C(=O)N[C@@H](Cc1c[nH]c2ccccc12)C(=O)N[C@@H](CC(C)C)C(=O)N[C@H](C(=O)N[C@@H](CCCCN)C(=O)NCC(=O)N[C@@H](CCCNC(=N)N)C(N)=O)C(C)C [GLP1],–,–,–,–,–,–,Emax (GIP receptor (GIPR)): 2.66%
"CC[C@H](C)[C@H](NC(=O)[C@H](CO)NC(=O)[C@H](Cc1ccc(O)cc1)NC(=O)[C@H](CC(=O)O)NC(=O)[C@H](CO)NC(=O)[C@@H](NC(=O)[C@H](Cc1ccccc1)NC(=O)[C@@H](NC(=O)CNC(=O)[C@H](CCC(=O)O)NC(=O)C(C)(C)NC(=O)[C@@H](N)Cc1ccc(O)cc1)[C@@H](C)O)[C@@H](C)O)C(=O)N[C@@H](Cc1ccc(O)cc1)C(=O)N[C@@H](CC(C)C)C(=O)N[C@@H](CC(=O)O)C(=O)N[C@@H](CCCCN)C(=O)N[C@@H](CCC(N)=O)C(=O)N[C@@H](C)C(=O)N[C@@H](C)C(=O)NC(C)(C)C(=O)N[C@@H](CCC(=O)O)C(=O)N[C@@H](Cc1ccccc1)C(=O)N[C@H](C(=O)N[C@@H](CC(N)=O)C(=O)N[C@@H](Cc1c[nH]c2ccccc12)C(=O)N[C@@H](CC(C)C)C(=O)N[C@@H](CC(C)C)C(=O)N[C@@H](C)C(=O)NCC(N)=O)C(C)C [compound 2000, YBEGT FTSDY SIYLD KQAAB EFVNW LLAG]",–,–,–,–,–,–,"% of mass remaining in solution ([1]; 0 mins.): 100%; half-life ([1]; human, microsomes): 58 min; microsomal CLint ([1]; human, microsomes): 24 µL/min/mg; remaining at 10 min, 1 μM ([1]; human, microsomes): 95%; remaining at 20 min, 1 μM ([1]; human, microsomes): 78%; remaining at 0.5 h, 1 μM ([1]; human, microsomes): 72%; remaining at 1 h, 1 μM ([1]; human, microsomes): 50%; % of mass remaining in solution ([2]; 0 mins., 1 μM, 37° C., pH 7.4): 100%; remaining at 0.25 h, 1 μM ([2]; plasma (sodium heparin), 15 mins., 1 μM, 37° C., pH 7.4, read-out: % of mass remaining in solution): 101%; remaining at 0.5 h, 1 μM ([2]; plasma (sodium heparin), 30 mins., 1 μM, 37° C., pH 7.4, read-out: % of mass remaining in solution): 99%; remaining at 1 h, 1 μM ([2]; plasma (sodium heparin), 60 mins., 1 μM, 37° C., pH 7.4, read-out: % of mass remaining in solution): 95%; remaining at 2 h, 1 μM ([2]; plasma (sodium heparin), 120 mins., 1 μM, 37° C., pH 7.4, read-out: % of mass remaining in solution): 98%; half-life ([2]; read-out: serum-half lives): > 120 min"
B1,99.1,2.68,-0.8,99.1,–,–,cAMP agonist EC50 (RC50 (uM)) (GLP-1 receptor): > 1 µM
Y[Aib]EGTFTSDYSIYLD[APC]QA[ACPC][Aib]EF[ACPC]NW[ACPC]LAG [2008],82.2,84.5,-0.6,82.8,0.9,84.4,–
B2,99.2,95.7,-2.6,96.3,1.3,91.1,–
B3,16.5,36.7,–,–,–,–,cAMP agonist EC50 (RC50 (uM)) (GLP-1 receptor): > 1 µM; cAMP agonist EC50 (RC50 (uM)) (GIP receptor): > 1 µM
Y[Aib]EGTFTSDYSIYLDK[ACPC]AA[Aib][ACPC]FV[APC]WLL[ACPC]G [2010],96.9,82.1,-0.3,85.5,0.4,82.4,–

# Reference: patent US9790262B2, “Compositions comprising glucagon analogs and methods of making and using the same” (LONGEVITY BIOTECH, INC., priority 2011, dated 2017)
